# Publication PMC4175982
# Molecular target: GrpU protein from Clostridiales bacterium 1_7_47FAA (Clostridiales bacterium 1_7_47FAA)
# Test: crystal structure
substance,measurement,value
GrpU protein from Clostridiales bacterium 1_7_47FAA (natural protein),stoichiometry N,6
